Earlier results on 1 substance are cited in article PMC4465046.

Usually Kd stands for the concentration at which binding is half-saturated.

For this data set, the target named is HIV-1 protease (Human immunodeficiency virus 1) (UniProt O93215).

Regarding HIV-1 protease (from UniProt O93215), the Kd was 6.8 nM.
